Test results from the nanobody polyreactivity screen of Harvey et al. (2022).

Assay: yeast display, Sf9 membrane polyspecificity reagent, FACS + sequencing; frameworks hold sequencing errors
In short: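 Polyreactivity labels are assigned by the sorting gate from which each nanobody was recovered. The gates were low and high (top ~1%), set on anti-HA fluorescence for expression and streptavidin fluorescence for reagent binding. Before sorting, galactose-induced (36–48 hours) yeast display cells were stained for 1 hour at 4 °C with 10% biotinylated, detergent-solubilized Sf9 membrane reagent.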
In the case of “QVQLVESGGGIVQAGGSLRLSSAASGLTFAYNTMGWYRQAPGIEREFVASISSSGGNTYYADSVKGRFTISRDNAKNTVYLQMHSLKPEDTAVYYCAAKKKYHYVATYKRFENWGQGTHVTVSS”, the “polyreactivity (PSR sort gate)” value is reported as “low polyreactivity”.
In the case of “QVQLVESGGGIVQAGGSLRLSSAASGRIFDTNAMGWYRQAPGKERELVAAITGRGGGTYYADSVKGRFTISRDNAKNTVYLQMNSLKPEDTAVYYCNAFAPIYRHYSWGSGLDYWGQGTLVTVSS”, the “polyreactivity (PSR sort gate)” value is reported as “high polyreactivity”.
For “QVQLVESGGGIVQAGGSLRLSSAASGSIFYYYAKGWYRQAPGKERELVATINISDGSTYYADSVKGRFTISRDNAKNTVYLQMNSLKPEDTAVYYCAAYYYFLDYDYWGQGTQVTVSS”, the “polyreactivity (PSR sort gate)” value was “low polyreactivity”.
With “QVQLVESGGGIVQAGGSLRLTCAASGRIFYYYAMGWYRQAPGKEREFVAASSRSGGSTYYADSVKGRFTISRDNAKNTVYLQMNSLKPEDTAVYYCNAVRSYRGDFKYDWGQGTQVTVSS” the “polyreactivity (PSR sort gate)” value was “high polyreactivity”.
In the case of “QVQLVESGGGIVQAGGSLRLTCDASGFTFVINDMGRYRQARGKERELVADITSGGDTYYADSVKGRFTISRDNAKNSVYFHRNSLKPEDTAVYFCAADIYPDWIYLLYGYWGQGTQLTVSS”, the “polyreactivity (PSR sort gate)” value is reported as “low polyreactivity”.
For “QVQLVESGGGIVQAGGSLRVSCAASGRTFYSSAMGWYRQAPGKERELVAAISWNGGSTYYADSVKGRFTISRDNAKNTVYLQMNSLNPEDTAVYYCAATYLLRGDAYYSWGQGTQVTVSS”, the “polyreactivity (PSR sort gate)” value was “high polyreactivity”.
In the case of “QVQLVESGGGIVQAGGSLSLSCAASGRTFIRNAIGCYRQAPGKERELVAAINSGGITNYADSVKGRFTISRDNANNTVYLQMNSLKPEDTAVYYCNARQVLYGLYLRAYPYEYWGQGTQVTVSS”, the “polyreactivity (PSR sort gate)” value is reported as “low polyreactivity”.
In the case of “QVQLVESGGGIVQAGGSLSLSCAASGSTFSIYAMGWSRQATGTEREVVAAISGSGSRTYYADSVKGRFTISRDNEKNSVYLQMNMLKPEDTAVYYCAALGRHRDGFDFNYWGQGTQVTLSS”, the “polyreactivity (PSR sort gate)” value is reported as “high polyreactivity”.
In the case of “QVQLVESGGGIVQAGGTLRLSCAASGSTFFYYVMGWYRQAPGKERELVAAITSSGGGTYYADSVKGRFTISRDNAKNTVYLQMKSLKPEDTAVYYCAKPVWWRDYRHGGRFGYWGQGTQVTVSS”, the “polyreactivity (PSR sort gate)” value is reported as “low polyreactivity”.
With “QVQLVESGGGIVQAGRSLRLSCAASGFTFYWYAMGWYRQAPGKERELVAAISWSGGSTYYADSVKGRFTISRDNETNTVYLQMYSLKPEDTAVYYCAADNYFFGDEDYWGQGTQVTVSS” the “polyreactivity (PSR sort gate)” value was “high polyreactivity”.
For “QVQLVESGGGIVQAGRSLRLSCSASGFIFAIKAMGWYRQAPGKERELVAAITGGGSTSYADSVKGRFTISRDNAKNTVYLQMNSLKPEDTAVYYCATDRLTYTKYGYWGQGTQVTVSS”, the “polyreactivity (PSR sort gate)” value was “low polyreactivity”.
With “QVQLVESGGGIVQAGRSLRLTCAASGITFKAYTMGWYRQAPGKERELVATISRGGRTYADSVKGRFTISRDNAKNTVYLQINSLKPEDTAVYYCAADKYWAQNDYWGQGTQVTVSS” the “polyreactivity (PSR sort gate)” value was “low polyreactivity”.
In the case of “QVQLVESGGGIVQAVGSLRLSCAASGFTLERYAMVWYRPAPGKERELVAAITQSGVSTYYADSVKGRFTISRDNAKNTVYLQMNSLKPEDTAVYYCNALRIYHHYEYDYWGQGTQVTVSS”, the “polyreactivity (PSR sort gate)” value is reported as “high polyreactivity”.
In the case of “QVQLVESGGGIVQEGRSLSISCAASGSTFYTYAMGWYRPAPGKERELVAAITQSGGRTYYADSVKGRFTISRDNANNTVYLEMNSLKPEDTAVDYCNAPPYTGYDWGQGTQVSVSS”, the “polyreactivity (PSR sort gate)” value is reported as “high polyreactivity”.
In the case of “QVQLVESGGGKVKAGGSLRISCAASGRTYRYAMGWYRQAPGKERELVAAITSGGRTNYADSVKGRFTISRDNAKNTVYLQMNSLKPEDTAVYYCAAQWYTVITSWYGYWGQGTQVTVSS”, the “polyreactivity (PSR sort gate)” value is reported as “low polyreactivity”.
With “QVQLVESGGGKVQAGGSLRLSCAAYGIIFYPYDMGWNRQSPAKERELVAAISIGGGSTYYADSVKGRFTISRDNAKNTVYLQMNSLKPEDNAVYYCAAGTPYGILGYYYWGQGSQVTVSS” the “polyreactivity (PSR sort gate)” value was “low polyreactivity”.
For “QVQLVESGGGKVQAVGSLRLSCAASGRTFYPYAMGWYRQAPGKERELVAVITWSTGNTYYADSVKGRFTISRDNAKNTVYLQMNSLKPEDTAVYYCAAAYYRYRGTIRYYYWGQGTQVTVSS”, the “polyreactivity (PSR sort gate)” value was “high polyreactivity”.
With “QVQLVESGGGLAQAGGSLRLSCAASGRTFRTYTMGWYRQAPGKERELVAAISWSGSSTYYADSVKGRFTISRDNAKNTVYLQMNSLKPEDTAVYYCAARGLYDYGYWGQGTQVTVSS” the “polyreactivity (PSR sort gate)” value was “high polyreactivity”.
In the case of “QVQLVESGGGLDHAGGRLRLSCAASGSIFYENVMGWYRQAPGKERELVAGISRSGGRTYYADSVKGSFTISRDYAKNTVYLQMNSLQPVDTAVYYCAALTPRNRYRKFDYWGQGTQVTVSS”, the “polyreactivity (PSR sort gate)” value is reported as “high polyreactivity”.
In the case of “QVQLVESGGGLDLAGGSLRLSCAASGRTFLYYAMGWYRQAPWKDREFVASIRRGGGSTYYADSVKGRFTFSRDNAKHTVYLQMHSLKPVDTAVYYCAAQPYTLSLFRLNYDYWGQGTQVTVSS”, the “polyreactivity (PSR sort gate)” value is reported as “low polyreactivity”.
With “QVQLVESGGGLDQAAGSLRLTCAASGTTFEYYAMGLYRQAPAKEREFVAAITGSGASTYYADSVKGRFTISRDNAKNTVYLQMNSLKPEDTAVYYCIALSALAVEDGYWGQGTQVTVSS” the “polyreactivity (PSR sort gate)” value was “low polyreactivity”.
For “QVQLVESGGGLDQAGGCLRLSCAASGSIFRTYAMGWYRQAPGKERELVADITRRGGSTYYADSVKGRFTISRDNAKYTVNLQLNSLKPEETAVYYCAAYGYTSAGDSARLDYWGQGSQVTVSS”, the “polyreactivity (PSR sort gate)” value was “high polyreactivity”.
For “QVQLVESGGGLDQAGGRLRLSCAASGRTFNVNVMGWYRQSPGKERELVAAIRYTGGSTYADSVKGRFTISRDNAKNTVYLQMNSLKPEDTAVDYCNADTFFPFDHGMDYWGQGTQVTVSS”, the “polyreactivity (PSR sort gate)” value was “low polyreactivity”.
In the case of “QVQLVESGGGLDQAGGSHRLSCAASGRIFYIYTMGWYRQPPGKEREFVAGINWNGGSTYYADSVKGRFTISRDNAKNTVYLQMNSLKPEVTAVYYCNADQYWDRYYYWGQGTQVTVSS”, the “polyreactivity (PSR sort gate)” value is reported as “low polyreactivity”.
In the case of “QVQLVESGGGLDQAGGSLPLSCAASGRTFRYYDRGSYRQAPGKERELVARISISGAGTYYADSVKGRFTISRDNAKNTVYFEMNSLKPEDTAVYYCAADLFWWQKTISGGDYWGQGTQVNVSS”, the “polyreactivity (PSR sort gate)” value is reported as “low polyreactivity”.
With “QVQLVESGGGLDQAGGSLPLTCAASGSIFDPNAMGWYRQAPGKERELVANNTIGGRTNYADSVKGRFTISRDNPKNTVYLQMNSLKPDDTAVFYCAKDSPYTSVTVLAPIIYESWGKGTQVTVSS” the “polyreactivity (PSR sort gate)” value was “low polyreactivity”.
In the case of “QVQLVESGGGLDQAGGSLRISCAASGRTFRNYAMGSYRQAPGKERELVPAISFSGGRTYYADSVKGRFTISRDNAKNTVYLQMNSLKPEDTAVYYCAKVSYYRGDGDEDYGYWGQGTQVPVSS”, the “polyreactivity (PSR sort gate)” value is reported as “high polyreactivity”.
With “QVQLVESGGGLDQAGGSLRLICAASGITFFPYAMVWYRQAPGKEKELVAAISSGSSTYYADSVKGRFTISRDNAKNTVYLQMNSLKPEDTAVYYCATRRDLHDRYEYDYWGQGTQVTVSS” the “polyreactivity (PSR sort gate)” value was “low polyreactivity”.
In the case of “QVQLVESGGGLDQAGGSLRLICAASGLTFYLYAMGWYRQAPGKERELVAAISTRGGSTRYADSVKGRFTISRDNAKNTVYLQMNSLKPEDTAVFDCNAVSKWLEYDYWGQGTQVTVSS”, the “polyreactivity (PSR sort gate)” value is reported as “high polyreactivity”.
For “QVQLVESGGGLDQAGGSLRLICAASGSTFYIYAMGWYRQAPGKEREFVAAIDFSGSSTYADSVKGRFTISRDNAKNPVYLQMNTLKPEDTAVYYCAAYQIYQYDGPYDYWGQGTQVTVSS”, the “polyreactivity (PSR sort gate)” value was “low polyreactivity”.
For “QVQLVESGGGLDQAGGSLRLISAASGYVMGWYRQAPEKEKELVATITRGTSTYYADSVKGRFTISRDNAKNTVYFQMNSLKPDDTAVYYCAARTTSGEWPPGNICTYLYDYWGQGTQVTVSS”, the “polyreactivity (PSR sort gate)” value was “low polyreactivity”.
In the case of “QVQLVESGGGLDQAGGSLRLRCAASGSTFYVNAIGWYRQAPGKERELVAAITSTGTTHNADSVKGRFTISRDNAKKTVYLQMNSLKPEDTAVYYCAAGDQYKTRRNGYGYWGQGTQVTVSS”, the “polyreactivity (PSR sort gate)” value is reported as “high polyreactivity”.
With “QVQLVESGGGLDQAGGSLRLSCAASARIYGYYANGWYRQAPGKERELVAAINSGGSTYYADSVKGRFTISRDNAKNTVYLQMNSLKPEDTAVYYCAAYKFSVHGYDYWGQGTQGTVSS” the “polyreactivity (PSR sort gate)” value was “high polyreactivity”.
With “QVQLVESGGGLDQAGGSLRLSCAASGFIFGRYTMVWYRPAPGKEMELVAAISRGGITNYADSEKGRFTISRDNAKNTVYLQMNSLKPEDTAVYYCATTRDYWRGRSYYYWGQGTQVTVSS” the “polyreactivity (PSR sort gate)” value was “high polyreactivity”.
In the case of “QVQLVESGGGLDQAGGSLRLSCAASGFIFLDYAMGWYRRAPGKERELVAAISSRGARTYYADSVKGRFTISRDNAKNTFYLQMNSLKPEDTAVYYCAARGPLDRYGYWGQGTQVTVSS”, the “polyreactivity (PSR sort gate)” value is reported as “high polyreactivity”.
For “QVQLVESGGGLDQAGGSLRLSCAASGFIFPGNAMGWYRQAPGKERELVAAISWRVGRTYYADSVKGRFTISRDNAKNTVYLQMNSLKPEDTAVYYCAVARSSPEYYYWGQGTQVTVSS”, the “polyreactivity (PSR sort gate)” value was “high polyreactivity”.
With “QVQLVESGGGLDQAGGSLRLSCAASGFIFRSYTMGWYRQEPRKEREFVPAITWTGGSTYYADSVKGRFTISRDNAKNTVYLQMNSLKPEDTAVYYCNAANWHYSTAPKPYAFDYWGQGTQVTVSS” the “polyreactivity (PSR sort gate)” value was “low polyreactivity”.
For “QVQLVESGGGLDQAGGSLRLSCAASGFIYSSYGMGWYRQAPGKERELDAAISRSGGSTYYADSVKGRFTISRDNAKNTVYLEMNSLKPEDTAVYYCATAYSWRNADWFAYSYDYWGQGTQVTVSS”, the “polyreactivity (PSR sort gate)” value was “low polyreactivity”.
For “QVQLVESGGGLDQAGGSLRLSCAASGFTFGSNAMGWYRQAPGKERELVASITTRGGSTYYADSVKGRFTISRDNANNTVYLQMNSLKPEDTAVYYCAARARYPNWTYYYWGQGTQVTVSS”, the “polyreactivity (PSR sort gate)” value was “high polyreactivity”.
In the case of “QVQLVESGGGLDQAGGSLRLSCAASGFTFRKNAMGWYRQAPGKERELVAVISYSGGSTYYADSVNGRFTISRDSANNTVYLQMNSQKPEDSAVYYCNAVGWTRYWRIGWSAYYYWGQGTQVTVSS”, the “polyreactivity (PSR sort gate)” value is reported as “high polyreactivity”.
In the case of “QVQLVESGGGLDQAGGSLRLSCAASGFTFRYYAMGWYRQAPRKERELVAAIRRGGTTNYADSVKGRFTISRDNAKNTVYLQMNSLKPEDTAVYYCANYRYGYDYWGQGTQVTVSS”, the “polyreactivity (PSR sort gate)” value is reported as “high polyreactivity”.
In the case of “QVQLVESGGGLDQAGGSLRLSCAASGGIFSVYAMGWYRQAPGKEREFVAAISKSGGRTYYADSVKGRFTISRDTAKKTVYLQMNCLKQVDTAVYYCNADVYPYYRKPWMDYWGQGSQVTVSS”, the “polyreactivity (PSR sort gate)” value is reported as “low polyreactivity”.
With “QVQLVESGGGLDQAGGSLRLSCAASGIIFAANAMGWSRQAPGKERELVAAISKNGGITYYADSVQGRFTISRDNAKNTVDLQRNSLKPEDTAVYYCAARWRQTRSYYYWGQGTQVNVSS” the “polyreactivity (PSR sort gate)” value was “high polyreactivity”.
